According to patent publication US20040053388A1, “Detection of protein conformation using a split ubiquitin reporter system” (priority 2003, published 2004):
Numbering of substitutions follows the chain as printed.

Key:
[1] = target: HA-tagged Ste4p (Saccharomyces cerevisiae) (UniProt P18851); assay: cell-based or functional assay
yeast cells = assay: Growth assay of Nub-p53core-Cub—RUra3p yeast cells on media containing 5-FOA; type: cell-based; conditions: Nia fusion protein
Source text: The wild-type core domain and a destabilizing mutation V143A were further tested using a simple growth assay employing the R-ura3 reporter (see above) and selecting clones that can grow on 5-FOA. In this case the Nub (I13A) mutant Nia was used. If the Nub—X—Cub—R-ura3 fusion is […], the R-ura3 reporter will be cleaved off of the C-terminal end of Cub and subsequently be degraded by N-end rule components (see above), allowing the host yeast cell to grow on the 5-FOA selective media.
Consistent with previous results, the V143A core mutant is a destabilizing mutant when compared to the wild-type p53. […] The Nia fusion protein allows to distinguish between the cells expressing the wild type p53core (growth) and the cells expressing the V143A mutant of the core (non-growth).

Fpr1-Cub-Dha = Fpr1-Cub-Dha (Saccharomyces cerevisiae, UniProt P20081 1-114; P0CG63 35-76; P00375 1-187); assay: split-ubiquitin in trans: coexpression in yeast, anti-ha immunoblot of cleaved Dha
Source text: (§1) A significant extent of the observed cleavage could arise from the intermolecular reassociation of two Ub-halves that are linked to two different polypeptides. To estimate the contribution of the intermolecular Ub-reassociation, Guk1-Cub-Dha was coexpressed with several versions of Nub-Guk1-ha as was Fpr1-Cub-Dha with several versions of Nub-Fpr1-ha (FIG. 4a). Good intermolecular Nub—Cub reassociation is only seen in cells expressing the Nᵢᵢ-fusions, whereas none or only background cleavage is seen in those cells co-expressing the corresponding Nig-fusions. Nub-mutants with a lower affinity for Cub than Nig were therefore not tested. It thus can be concluded that the cleaved Dha observed for Nig—Cub fusion proteins and for those fusion proteins containing a Nub with a lower affinity for Cub than Nig must result exclusively from the intramolecular reassociation of the coupled Ub-peptides. The structure of Guk1p offers a reasonable explanation for this observation, that can not apply for the Fpr1p fusion proteins. Here the reassociation must either occur before Fpr1p is folded or after the unfolding of the already matured protein. […] We conclude that the fraction of cleaved Dha which is detected in the immunoblot analysis of cells expressing Nvg-Fpr1-Cub-Dha is largely derived from fusion proteins which stayed in the cytosol long enough to give the Fpr1-moiety sufficient time to fold.

Guk1-Cub-Dha = Guk1-Cub-Dha (Saccharomyces cerevisiae, UniProt P15454 1-187; P0CG63 35-76; P00375 1-187); assay: as above
Source text: as §1

S. cerevisiae cells = assay: Intrapolypeptide split-ubiquitin cleavage of Nub—X—Cub-Dha fusions, anti-HA immunoblot with chemiluminescence quantification; type: cell-based, Saccharomyces cerevisiae; conditions: yeast cells; for cleavage (percentage of cleaved Dha compared to the sum of cleaved and uncleaved fusion protein): 30° C., one hour induction with 100 μM CuSO4, anti-HA immunoblot
Source text: The isoleucine residues at position three and thirteen of Nub (Nii) were replaced by valine (Nxv; Nvx) alanine (Nxa; Nax) and glycine (Nxg; Ngx) (Johnsson et al., Proc. Natl. Acad. Sci. USA 91: 10340-44, 1994; Kellis et al., Biochemistry 28: 4914-22, 1989). The residues at position 3 and 13 are indicated by the suffix in Nub with the corresponding amino acids in the single letter code. The sixteen different combinations were first tested in the otherwise native Ub which was attached in front of the dihydrofolate reductase carrying the HA epitope at its C-terminus (Ub-Dha). The analysis of the cleaved and uncleaved protein was performed by immunodetection of the proteins with the anti-HA antibody after cell extraction and SDS-PAGE separation.
S. cerevisiae cells expressing the different Nub—X—Cub-fusions were grown at 30° C. in […] of SD medium to an OD600 of 0.8 and supplemented with 100 μM CuSO4 one hour prior to cell extraction. Cell extraction for immunoblotting was performed essentially as previously described (Johnsson et al., Embo J. 13: 2686-98, 1994). Proteins were fractionated by SDS-12.5% PAGE and electroblotted onto nitrocellulose membranes (Schleicher and Schuell, Dassel, Germany), using a semi-dry transfer system (Hoefer, Pharmacia Biotech INC., San Francisco, Calif.). Blots were incubated with a monoclonal anti-ha antibody (Babco, Richmond, Calif.). Bound antibody was visualized with horseradish peroxidase-coupled rabbit anti-mouse or goat anti-rabbit antibody (BioRad, Hercules, Calif.), using the chemiluminescence detection system (Pierce, Rockford, Ill.). The chemiluminescence was quantified with the aid of the lumi-imager system (Boehringer, Mannheim, Germany).

Chain of HA-tagged Ste4p (Saccharomyces cerevisiae) (P18851 other isoform, or with tags, fused parts or gaps limits assumed): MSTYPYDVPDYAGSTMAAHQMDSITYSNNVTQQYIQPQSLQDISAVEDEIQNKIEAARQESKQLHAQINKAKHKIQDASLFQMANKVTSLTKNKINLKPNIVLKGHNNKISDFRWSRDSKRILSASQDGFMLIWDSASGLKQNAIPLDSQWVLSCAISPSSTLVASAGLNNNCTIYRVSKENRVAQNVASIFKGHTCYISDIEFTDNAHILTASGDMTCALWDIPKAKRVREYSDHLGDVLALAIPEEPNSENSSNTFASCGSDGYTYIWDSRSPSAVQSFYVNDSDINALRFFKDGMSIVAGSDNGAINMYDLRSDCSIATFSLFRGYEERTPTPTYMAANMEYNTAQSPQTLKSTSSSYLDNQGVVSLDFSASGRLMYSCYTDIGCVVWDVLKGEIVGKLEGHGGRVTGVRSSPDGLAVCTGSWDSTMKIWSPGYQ
Chain of Guk1-Cub-Dha (P15454 other isoform, or with tags, fused parts or gaps): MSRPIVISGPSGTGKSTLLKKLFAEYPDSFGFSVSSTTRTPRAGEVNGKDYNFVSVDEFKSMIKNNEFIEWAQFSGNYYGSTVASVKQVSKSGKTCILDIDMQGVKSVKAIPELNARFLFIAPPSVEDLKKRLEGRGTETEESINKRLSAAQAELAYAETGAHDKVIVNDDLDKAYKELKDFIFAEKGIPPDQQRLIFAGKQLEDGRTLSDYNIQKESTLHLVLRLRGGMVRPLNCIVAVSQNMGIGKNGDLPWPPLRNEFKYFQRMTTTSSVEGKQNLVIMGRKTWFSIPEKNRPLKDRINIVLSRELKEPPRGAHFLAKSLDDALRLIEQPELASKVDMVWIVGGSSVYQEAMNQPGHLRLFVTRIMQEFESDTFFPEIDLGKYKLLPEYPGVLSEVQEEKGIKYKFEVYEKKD
Chain of Fpr1-Cub-Dha (P20081 other isoform, or with tags, fused parts or gaps): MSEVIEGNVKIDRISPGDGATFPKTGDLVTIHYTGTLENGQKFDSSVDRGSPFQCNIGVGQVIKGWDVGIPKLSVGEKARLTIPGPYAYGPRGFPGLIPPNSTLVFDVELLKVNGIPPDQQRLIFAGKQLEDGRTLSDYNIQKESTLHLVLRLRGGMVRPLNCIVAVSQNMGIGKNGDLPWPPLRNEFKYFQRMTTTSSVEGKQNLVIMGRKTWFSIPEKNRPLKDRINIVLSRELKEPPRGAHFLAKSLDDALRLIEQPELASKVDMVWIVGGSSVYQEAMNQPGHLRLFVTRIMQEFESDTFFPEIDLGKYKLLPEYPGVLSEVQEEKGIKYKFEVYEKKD

Molecule: Nvg-Ste1874-Cub-Dha (from UniProt P0CG63 1-37; P18852 37-105; P0CG63 35-76; P00375 1-187)
- ratio of uncleaved to cleaved fusion protein with HA-Ste4p against without, expression not induced by copper [1]: 1.6 fold

Molecule: wild type p53core: p53 core domain (amino acids 102-292) in Nub-p53core-Cub—RUra3p fusion
- growth on media containing 5-FOA (yeast cells): growth

Molecule: Nvg-Ste1891-Cub-Dha (from UniProt P0CG63 1-37; P18852 20-105; P0CG63 35-76; P00375 1-187)
- fraction of uncleaved fusion protein (ratio of uncleaved to cleaved) with HA-Ste4p against without, inducing conditions (+Cu2+) [1]: 2 fold
- fraction of uncleaved fusion protein (ratio of uncleaved to cleaved) with HA-Ste4p against without, non-inducing conditions [1]: 3.6 fold

B1: Nig-Fpr1-ha (other, UniProt P0CG63 1-37, looked up, not shown: small tags and cut ends)
chain: MQIFVKTLTGKTGTLEVESSDTIDNVKSKIQDKEGIPMSEVIEGNVKIDRISPGDGATFPKTGDLVTIHYTGTLENGQKFDSSVDRGSPFQCNIGVGQVIKGWDVGIPKLSVGEKARLTIPGPYAYGPRGFPGLIPPNSTLVFDVELLKVN
notes: also called Nub-Fpr1-ha; Nig-fusion
- binding result (Fpr1-Cub-Dha): no binding

B2: Nig-Guk1-ha (other, UniProt P0CG63 1-37, looked up, not shown: small tags and cut ends)
chain: MQIFVKTLTGKTGTLEVESSDTIDNVKSKIQDKEGIPMSRPIVISGPSGTGKSTLLKKLFAEYPDSFGFSVSSTTRTPRAGEVNGKDYNFVSVDEFKSMIKNNEFIEWAQFSGNYYGSTVASVKQVSKSGKTCILDIDMQGVKSVKAIPELNARFLFIAPPSVEDLKKRLEGRGTETEESINKRLSAAQAELAYAETGAHDKVIVNDDLDKAYKELKDFIFAEK
notes: also called Nub-Guk1-ha; Nig-fusion
- binding result (Guk1-Cub-Dha): no binding

B3: Guk1V5R: Fusion construct of Guk1p with valine 5 replaced by arginine (protein, UniProt P15454 2-187, looked up, variant V5R)
Guanylate kinase: SRPIRISGPSGTGKSTLLKKLFAEYPDSFGFSVSSTTRTPRAGEVNGKDYNFVSVDEFKSMIKNNEFIEWAQFSGNYYGSTVASVKQVSKSGKTCILDIDMQGVKSVKAIPELNARFLFIAPPSVEDLKKRLEGRGTETEESINKRLSAAQAELAYAETGAHDKVIVNDDLDKAYKELKDFIFAEK
modifications: split-ubiquitin fusion construct
notes: Fusion construct of Guk1p with valine 5 replaced by arginine
- cleavage (percentage of cleaved Dha compared to the sum of cleaved and uncleaved fusion protein) (S. cerevisiae cells): 61%

B4: Nvg-Guk1G8R—Cub-Dha: Nvg—Cub-Dha fusion of Guk1p with glycine 8 replaced by arginine (protein, UniProt P15454 2-187, looked up, variant G8R)
Guanylate kinase: B3 Guanylate kinase with R5V, G8R
modifications: fused to Nvg, Cub, Dha
notes: Nvg—Cub-Dha fusion of Guk1p with glycine 8 replaced by arginine
- cleavage of fusion protein (in words) (S. cerevisiae cells; anti-HA immunoblot): cleaved as completely as the corresponding wild type construct

B5: Fpr1V107A (protein, UniProt P20081 2-114, looked up, variant V107A)
FK506-binding protein 1: SEVIEGNVKIDRISPGDGATFPKTGDLVTIHYTGTLENGQKFDSSVDRGSPFQCNIGVGQVIKGWDVGIPKLSVGEKARLTIPGPYAYGPRGFPGLIPPNSTLVFDAELLKVN
- cleavage (percentage of cleaved Dha compared to the sum of cleaved and uncleaved fusion protein) (S. cerevisiae cells): 55%

B6: Fpr1V107G (protein, UniProt P20081 2-114, looked up, variant V107G)
FK506-binding protein 1: B5 FK506-binding protein 1 with A107G
- cleavage (percentage of cleaved Dha compared to the sum of cleaved and uncleaved fusion protein) (S. cerevisiae cells): 40%
